# Data: the supplement of paper PMC10567573
# B1: TCEB3B (parent)
# chain: STTALGDKQRKANESKGTRESWDS
# Variants of: B1
# Assay: protein stability index of a GFP-peptide fusion (GPS, HEK-293T) (PSI 1-6); higher = more stable
# Settings: c terminus: a fixed tail appended
# 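Note: lentivirally expressed fusions sorted by FACS into six bins by GFP to DsRed ratio, PSI derived from sequencing read proportions per bin multiplied by bin number.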
row,Variant,protein stability index
1,STTALGDKQRKANWSKGTRESWDS,2.73
2,STTALGDKQRKANASKGTRESWDS,3.15
3,STTALGDKQRKANHSKGTRESWDS,3.88
4,STTALGDKQRKANKSKGTRESWDS,3.33
5,STTALGDKQRKANLSKGTRESWDS,3.9
6,STTALGDKQRKANPSKGTRESWDS,3.19
7,STTALGDKQRKANCSKGTRESWDS,2.77
8,STTALGDKQRKANGSKGTRESWDS,3.85
9,STTALGDKQRKANDSKGTRESWDS,3.89
10,STTALGDKQRKANSSKGTRESWDS,3.82
11,STTALGDKQRKANISKGTRESWDS,3.81
12,STTALGDKQRKANQSKGTRESWDS,3.54
13,STTALGDKQRKANVSKGTRESWDS,3.34
14,STTALGDKQRKANRSKGTRESWDS,3.61
15,STTALGDKQRKANTSKGTRESWDS,3.42
16,STTALGDKQRKANNSKGTRESWDS,4.06
17,STTALGDKQRKANYSKGTRESWDS,2.95
18,STTALGDKQRKANFSKGTRESWDS,3
19,STTALGDKQRKANMSKGTRESWDS,3.65
20,STTALGDKQRKPNESKGTRESWDS,4.17
21,STTALGDKQRKWNESKGTRESWDS,3.34
22,STTALGDKQRKYNESKGTRESWDS,3.4
23,STTALGDKQRKSNESKGTRESWDS,4.3
24,STTALGDKQRKDNESKGTRESWDS,4.36

row,Variant,protein stability index
1,STTALGDKQRKENESKGTRESWDS,4.49
2,STTALGDKQRKHNESKGTRESWDS,3.88
3,STTALGDKQRKNNESKGTRESWDS,4.2
4,STTALGDKQRKTNESKGTRESWDS,3.59
5,STTALGDKQRKFNESKGTRESWDS,3.76
6,STTALGDKQRKQNESKGTRESWDS,3.92
7,STTALGDKQRKVNESKGTRESWDS,3.88
8,STTALGDKQRKCNESKGTRESWDS,3.99
9,STTALGDKQRKKNESKGTRESWDS,3.13
10,STTALGDKQRKMNESKGTRESWDS,3.83
11,STTALGDKQRKRNESKGTRESWDS,3.56
12,STTALGDKQRKINESKGTRESWDS,3.63
13,STTALGDKQRKGNESKGTRESWDS,4.21
14,STTALGDKQRKLNESKGTRESWDS,4.03
15,STTALGDKQCKANESKGTRESWDS,3.53
16,STTALGDKQGKANESKGTRESWDS,4.55
17,STTALGDKQPKANESKGTRESWDS,4.43
18,STTALGDKQQKANESKGTRESWDS,4.56
19,STTALGDKQSKANESKGTRESWDS,4.26
20,STTALGDKQEKANESKGTRESWDS,4.57
21,STTALGDKQTKANESKGTRESWDS,4.33
22,STTALGDKQHKANESKGTRESWDS,4.24
23,STTALGDKQKKANESKGTRESWDS,4.25
24,STTALGDKQYKANESKGTRESWDS,4.26

row,Variant,protein stability index
1,STTALGDKQWKANESKGTRESWDS,3.46
2,STTALGDKQLKANESKGTRESWDS,4.28
3,STTALGDKQVKANESKGTRESWDS,3.54
4,STTALGDKQFKANESKGTRESWDS,4.15
5,STTALGDKQDKANESKGTRESWDS,4.76
6,STTALGDKQMKANESKGTRESWDS,4.03
7,STTALGDKQAKANESKGTRESWDS,4.13
8,STTALGDKQIKANESKGTRESWDS,3.6
9,STTALGDKQNKANESKGTRESWDS,4.14
10,STTALGDFQRKANESKGTRESWDS,3.88
11,STTALGDRQRKANESKGTRESWDS,4.08
12,STTALGDDQRKANESKGTRESWDS,4.59
13,STTALGDLQRKANESKGTRESWDS,4.8
14,STTALGDVQRKANESKGTRESWDS,4.17
15,STTALGDSQRKANESKGTRESWDS,4.31
16,STTALGDIQRKANESKGTRESWDS,3.98
17,STTALGDNQRKANESKGTRESWDS,4.15
18,STTALGDEQRKANESKGTRESWDS,4.1
19,STTALGDAQRKANESKGTRESWDS,3.83
20,STTALGDTQRKANESKGTRESWDS,3.46
21,STTALGDGQRKANESKGTRESWDS,4.29
22,STTALGDPQRKANESKGTRESWDS,3.96
23,STTALGDMQRKANESKGTRESWDS,4.12
24,STTALGDCQRKANESKGTRESWDS,4.12

row,Variant,protein stability index
1,STTALGDQQRKANESKGTRESWDS,4.16
2,STTALGDYQRKANESKGTRESWDS,3.11
3,STTALGDHQRKANESKGTRESWDS,3.86
4,STTALGDWQRKANESKGTRESWDS,4.51
5,STTALGFKQRKANESKGTRESWDS,3.24
6,STTALGCKQRKANESKGTRESWDS,3.57
7,STTALGEKQRKANESKGTRESWDS,4.36
8,STTALGLKQRKANESKGTRESWDS,2.88
9,STTALGKKQRKANESKGTRESWDS,4.05
10,STTALGMKQRKANESKGTRESWDS,3.2
11,STTALGQKQRKANESKGTRESWDS,3.15
12,STTALGYKQRKANESKGTRESWDS,3
13,STTALGSKQRKANESKGTRESWDS,3.43
14,STTALGIKQRKANESKGTRESWDS,3.23
15,STTALGTKQRKANESKGTRESWDS,3.52
16,STTALGWKQRKANESKGTRESWDS,3.39
17,STTALGGKQRKANESKGTRESWDS,3.83
18,STTALGVKQRKANESKGTRESWDS,3.6
19,STTALGRKQRKANESKGTRESWDS,3.88
20,STTALGHKQRKANESKGTRESWDS,3.58
21,STTALGAKQRKANESKGTRESWDS,3.49
22,STTALGNKQRKANESKGTRESWDS,3.43
23,STTALGPKQRKANESKGTRESWDS,3.5
24,STTALGDKQREANESKGTRESWDS,4.72

row,Variant,protein stability index
1,STTALGDKQRNANESKGTRESWDS,4.39
2,STTALGDKQRHANESKGTRESWDS,4.29
3,STTALGDKQRYANESKGTRESWDS,4
4,STTALGDKQRCANESKGTRESWDS,4.53
5,STTALGDKQRFANESKGTRESWDS,3.79
6,STTALGDKQRIANESKGTRESWDS,4.02
7,STTALGDKQRLANESKGTRESWDS,3.65
8,STTALGDKQRWANESKGTRESWDS,3.99
9,STTALGDKQRMANESKGTRESWDS,3.86
10,STTALGDKQRAANESKGTRESWDS,4.3
11,STTALGDKQRGANESKGTRESWDS,3.88
12,STTALGDKQRDANESKGTRESWDS,4.32
13,STTALGDKQRSANESKGTRESWDS,4.03
14,STTALGDKQRRANESKGTRESWDS,3.57
15,STTALGDKQRQANESKGTRESWDS,3.79
16,STTALGDKQRPANESKGTRESWDS,4.23
17,STTALGDKQRTANESKGTRESWDS,4.22
18,STTALGDKQRVANESKGTRESWDS,4.07
19,STTALGDKQRKAWESKGTRESWDS,3.09
20,STTALGDKQRKAYESKGTRESWDS,3.22
21,STTALGDKQRKALESKGTRESWDS,3.67
22,STTALGDKQRKAGESKGTRESWDS,3.45
23,STTALGDKQRKAMESKGTRESWDS,3.7
24,STTALGDKQRKAQESKGTRESWDS,4.1

row,Variant,protein stability index
1,STTALGDKQRKATESKGTRESWDS,3.78
2,STTALGDKQRKACESKGTRESWDS,3.83
3,STTALGDKQRKADESKGTRESWDS,4.64
4,STTALGDKQRKAEESKGTRESWDS,4.87
5,STTALGDKQRKAVESKGTRESWDS,4.12
6,STTALGDKQRKAPESKGTRESWDS,3.83
7,STTALGDKQRKARESKGTRESWDS,3.12
8,STTALGDKQRKAIESKGTRESWDS,3.59
9,STTALGDKQRKAKESKGTRESWDS,3.65
10,STTALGDKQRKAHESKGTRESWDS,3.35
11,STTALGDKQRKAAESKGTRESWDS,3.91
12,STTALGDKQRKAFESKGTRESWDS,3.67
13,STTALGDKQRKASESKGTRESWDS,4.14
14,STTALGDKGRKANESKGTRESWDS,3.62
15,STTALGDKSRKANESKGTRESWDS,3.71
16,STTALGDKNRKANESKGTRESWDS,3.47
17,STTALGDKPRKANESKGTRESWDS,3.53
18,STTALGDKHRKANESKGTRESWDS,4.26
19,STTALGDKCRKANESKGTRESWDS,3.37
20,STTALGDKYRKANESKGTRESWDS,3.64
21,STTALGDKWRKANESKGTRESWDS,2.45
22,STTALGDKFRKANESKGTRESWDS,3.29
23,STTALGDKLRKANESKGTRESWDS,3.67
24,STTALGDKIRKANESKGTRESWDS,3.72

row,Variant,protein stability index
1,STTALGDKRRKANESKGTRESWDS,3.52
2,STTALGDKKRKANESKGTRESWDS,4.09
3,STTALGDKTRKANESKGTRESWDS,4.14
4,STTALGDKVRKANESKGTRESWDS,3.85
5,STTALGDKDRKANESKGTRESWDS,3.92
6,STTALGDKARKANESKGTRESWDS,3.38
7,STTALGDKMRKANESKGTRESWDS,4.08
8,STTALGDKERKANESKGTRESWDS,3.71
9,STTALGDKQRKANESQGTRESWDS,4.24
10,STTALGDKQRKANESMGTRESWDS,3.44
11,STTALGDKQRKANESPGTRESWDS,4.29
12,STTALGDKQRKANESCGTRESWDS,2.97
13,STTALGDKQRKANESNGTRESWDS,3.97
14,STTALGDKQRKANESDGTRESWDS,4.96
15,STTALGDKQRKANESVGTRESWDS,4.53
16,STTALGDKQRKANESAGTRESWDS,4.45
17,STTALGDKQRKANESHGTRESWDS,4.14
18,STTALGDKQRKANESTGTRESWDS,4.24
19,STTALGDKQRKANESIGTRESWDS,3.95
20,STTALGDKQRKANESRGTRESWDS,4.04
21,STTALGDKQRKANESLGTRESWDS,4.3
22,STTALGDKQRKANESGGTRESWDS,4.52
23,STTALGDKQRKANESSGTRESWDS,4.42
24,STTALGDKQRKANESFGTRESWDS,3.8

row,Variant,protein stability index
1,STTALGDKQRKANESEGTRESWDS,5
2,STTALGDKQRKANEYKGTRESWDS,3.64
3,STTALGDKQRKANEMKGTRESWDS,3.98
4,STTALGDKQRKANEFKGTRESWDS,3.94
5,STTALGDKQRKANEHKGTRESWDS,3.93
6,STTALGDKQRKANEWKGTRESWDS,3.72
7,STTALGDKQRKANEAKGTRESWDS,4.69
8,STTALGDKQRKANEEKGTRESWDS,4.97
9,STTALGDKQRKANEPKGTRESWDS,4.34
10,STTALGDKQRKANEQKGTRESWDS,4.03
11,STTALGDKQRKANERKGTRESWDS,3.65
12,STTALGDKQRKANENKGTRESWDS,4.24
13,STTALGDKQRKANEVKGTRESWDS,3.38
14,STTALGDKQRKANEKKGTRESWDS,4
15,STTALGDKQRKANEDKGTRESWDS,4.93
16,STTALGDKQRKANEGKGTRESWDS,4.2
17,STTALGDKQRKANELKGTRESWDS,3.52
18,STTALGDKQRKANECKGTRESWDS,3.58
19,STTALGDKQRKANETKGTRESWDS,3.38
20,STTALGDKQRKANEIKGTRESWDS,3.71
